# Patent publication US20260209350A1 (Alector, published 2026)
# Positions count from the first letter of the chain named.
# T1: mouse TREM2 on cells (mouse, UniProt Q99NH8 19-227)
# T1 construct: whole, on cells; Used for the recombinant protein on BWZ/BW cells (with mouse DAP12) and for the native protein on mouse macrophages and dendritic cells; the cell type stands under assay; also called mTREM2; mTrem2
# T1 sequence (looked up): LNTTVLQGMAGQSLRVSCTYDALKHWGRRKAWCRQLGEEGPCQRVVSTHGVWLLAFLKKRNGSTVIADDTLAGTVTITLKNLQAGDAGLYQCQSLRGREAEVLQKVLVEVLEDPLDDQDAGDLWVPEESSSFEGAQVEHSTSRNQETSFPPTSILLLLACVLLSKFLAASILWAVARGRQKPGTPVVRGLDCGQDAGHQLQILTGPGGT
# T2: human TREM2 Fc fusion protein (human, UniProt Q9NZC2 19-174)
# T2 construct: also called hTREM2-Fc; not shown: Fc part not specified
# T2 sequence: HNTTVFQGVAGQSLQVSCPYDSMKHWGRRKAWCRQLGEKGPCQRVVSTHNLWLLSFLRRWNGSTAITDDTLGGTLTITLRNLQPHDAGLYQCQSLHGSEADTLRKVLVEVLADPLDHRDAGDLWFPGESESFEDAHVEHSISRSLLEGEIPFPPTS
# T3: mouse TREM2 Fc fusion protein (mouse, UniProt Q99NH8 19-171)
# T3 construct: also called mTREM2-Fc; not shown: Fc part not specified
# T3 sequence (looked up): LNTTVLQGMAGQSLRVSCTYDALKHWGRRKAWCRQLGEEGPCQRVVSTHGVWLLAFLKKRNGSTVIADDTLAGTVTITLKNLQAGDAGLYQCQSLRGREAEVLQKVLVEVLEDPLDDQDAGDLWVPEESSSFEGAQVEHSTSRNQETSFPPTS
# T4: human monomeric His tagged TREM2 protein (human, UniProt Q9NZC2 19-174)
# T4 construct: also called hTREM2-HIS
# T4 sequence: T2 sequence
# B1: Ab13 (antibody, human IgG1, V domains shown)
# VH: QVQLVQSGAEVKKPGASVKVSCKASGYTFTSYGISWVRQAPGQGLEWMGWISAYNGNTNYAQKLQGRVTMTTDTSTSTAYMELRSLRSDDTAVYYCARGPSHYYDLAWGQGTLVTVSS
# VL: EIVLTQSPATLSLSPGERATLSCRASQSVSSYLAWYQQKPGQAPRLLIYDASNRATGIPARFSGSGSGTDFTLTISSLEPEDFAVYYCQQVSNYPITFGGGTKVEIK
# notes: human IgG1
# B2: Ab55 (antibody, human IgG1, V domains shown)
# VH: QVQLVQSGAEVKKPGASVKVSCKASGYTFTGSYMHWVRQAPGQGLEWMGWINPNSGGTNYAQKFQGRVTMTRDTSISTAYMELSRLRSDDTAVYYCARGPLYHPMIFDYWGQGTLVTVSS
# VL: B1 VL with V91L, N93T, I96L
# notes: human IgG1
# B3: Ab38 (antibody, human IgG1, V domains shown)
# VH: QVQLVESGGGVVQPGRSLRLSCAASGFTFSTYGMHWVRQAPGKGLEWVAVIWYDGSNKYYADSVKGRFTISRDNSKNTLYLQMNSLRAEDTAVYYCARGAPVDYGGIEPEYFQHWGQGTLVTVSS
# VL: B1 VL with V91I, S92D, N93F, Y94L, I96Y
# notes: human IgG1
# B4: Ab57 (antibody, human IgG1, V domains shown)
# VH: QVQLVQSGAEVKKPGASVKVSCKASGYTFTNYGISWVRQAPGQGLEWMGWISAYNGNTNYAQKLQGRVTMTTDTSTSTAYMELRSLRSDDTAVYYCARGPTKAYYGSGSYVVFDPWGQGTLVTVSS
# VL: B1 VL with N53K, N93L, Y94F, I96L
# notes: human IgG1
# B5: Ab48 (antibody, human IgG1, V domains shown)
# VH: QVQLVQSGAEVKKPGASVKVSCKASGYTFTSYYMHWVRQAPGQGLEWMGIINPSGGSTTYAQKFQGRVTMTRDTSTSTVYMELSSLRSEDTAVYYCARPGKSMDVWGQGTTVTVSS
# VL: B1 VL with V91R, S92A, N93A
# notes: human IgG1
# B6: Ab67 (antibody, human IgG1, V domains shown)
# VH: B5 VH
# VL: B1 VL with V91R, N93H, Y94F
# notes: human IgG1
# B7: Ab49 (antibody, human IgG1, V domains shown)
# VH: B5 VH with T59S, G100A, S102T, M103A, V105Y, T111L
# VL: B1 VL with N53K, V91R, S92T, N93S, Y94H
# notes: human IgG1
# B8: Ab46 (antibody, human IgG1, V domains shown)
# VH: B5 VH with T59S, G100A, S102T, M103A, V105Y, T111L
# VL: B1 VL with A51S, V91R
# notes: human IgG1
# B9: Ab47 (antibody, human IgG1, V domains shown)
# VH: B5 VH
# VL: B1 VL with A9G, V91R, S92I, N93L
# notes: human IgG1
# B10: Ab40 (antibody, human IgG1, V domains shown)
# VH: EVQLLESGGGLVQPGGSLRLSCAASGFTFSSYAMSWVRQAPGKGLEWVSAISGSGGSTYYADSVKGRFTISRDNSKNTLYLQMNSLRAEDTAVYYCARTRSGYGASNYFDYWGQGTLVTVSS
# VL: DIQMTQSPSSLSASVGDRVTITCRASQSISSYLNWYQQKPGKAPKLLIYAASSLQSGVPSRFSGSGSGTDFTLTISSLQPEDFATYYCQQGYAAPITFGGGTKVEIK
# notes: human IgG1
# B11: Ab36 (antibody, human IgG1, V domains shown)
# VH: QVQLVESGGGVVQPGRSLRLSCAASGFTFSTYGMHWVRQAPGKGLEWVAVIWYDGSNKYYADSVKGRFTISRDNSKNTLYLQMNSLRAEDTAVYYCARGTGAAAASPAFDIWGQGTMVTVSS
# VL: EIVLTQSPATLSLSPGERATLSCRASQSVSSYLAWYQQKPGQAPRLLIYDASNRATGIPARFSGSGSGTDFTLTISSLEPEDFAVYYCQQLFDWPTFGGGTKVEIK
# notes: human IgG1
# B12: Ab44 (antibody, human IgG1, V domains shown)
# VH: B11 VH
# VL: B11 VL with L4M, A51S, F92V, D93H
# notes: human IgG1
# B13: Ab16 (antibody, human IgG1, V domains shown)
# VH: QLQLQESGPGLVKPSETLSLTCTVSGGSISSNSYYWGWIRQPPGKGLEWIGSIYYSGSTYYNPSLKSRVTISVDTSKNQFSLKLSSVTAADTAVYYCARGVLGYGVFDYWGQGTLVTVSS
# VL: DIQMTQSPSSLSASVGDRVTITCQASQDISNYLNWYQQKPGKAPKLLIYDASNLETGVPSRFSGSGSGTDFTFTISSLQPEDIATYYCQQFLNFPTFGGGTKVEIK
# notes: human IgG1
# B14: Ab17 (antibody, human IgG1, V domains shown)
# VH: B13 VH
# VL: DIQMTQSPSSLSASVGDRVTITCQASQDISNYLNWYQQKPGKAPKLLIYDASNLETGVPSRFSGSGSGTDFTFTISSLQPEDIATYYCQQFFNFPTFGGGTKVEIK
# notes: human IgG1
# B15: Ab58 (antibody, human IgG1, V domains shown)
# VH: EVQLVQSGAEVKKPGESLKISCKGSGYSFTSYWIGWVRQMPGKGLEWMGIIYPGDSDTRYSPSFQGQVTISADKSISTAYLQWSSLKASDTAMYYCARLGIYSTGATAFDIWGQGTMVTVSS
# VL: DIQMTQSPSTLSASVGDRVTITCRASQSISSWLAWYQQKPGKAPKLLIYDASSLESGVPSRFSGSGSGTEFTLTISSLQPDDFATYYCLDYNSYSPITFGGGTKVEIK
# notes: human IgG1
# B16: Ab50 (antibody, human IgG1, V domains shown)
# VH: QVQLVQSGAEVKKPGASVKVSCKASGYTFTSYYIHWVRQAPGQGLEWMGIINPSGGSTSYAQKFQGRVTMTRDTSTSTVYMELSSLRSEDTAVYYCARAPQESPYVFDIWGQGTMVTVSS
# VL: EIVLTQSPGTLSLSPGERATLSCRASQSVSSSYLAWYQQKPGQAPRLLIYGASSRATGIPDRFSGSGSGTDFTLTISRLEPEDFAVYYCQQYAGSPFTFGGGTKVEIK
# notes: human IgG1
# B17: Ab53 (antibody, human IgG1, V domains shown)
# VH: B16 VH
# VL: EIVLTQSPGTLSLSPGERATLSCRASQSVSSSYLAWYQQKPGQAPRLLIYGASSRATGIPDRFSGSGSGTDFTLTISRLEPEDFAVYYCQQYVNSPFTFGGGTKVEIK
# notes: human IgG1
# B18: Ab5 (antibody, human IgG1, V domains shown)
# VH: B16 VH
# VL: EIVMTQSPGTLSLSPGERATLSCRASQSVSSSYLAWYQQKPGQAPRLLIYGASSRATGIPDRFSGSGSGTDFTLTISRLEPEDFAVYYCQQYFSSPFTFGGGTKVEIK
# notes: human IgG1
# B19: Ab15 (antibody, human IgG1, V domains shown)
# VH: QVQLQESGPGLVKPSQTLSLTCTVSGGSISSGGYYWSWIRQHPGKGLEWIGNIYYSGSTVYNPSLKSRVTISVDTSKNQFSLKLSSVTAADTAVYYCARGLYGYGVLDVWGQGTMVTVSS
# VL: DIQMTQSPSSLSASVGDRVTITCQASQDISNYLNWYQQKPGKAPKLLIYDASNLETGVPSRFSGSGSGTDFTFTISSLQPEDIATYYCQQFDTYPTFGGGTKVEIK
# notes: human IgG1
# Molecular target: T1, mouse TREM2 on cells
# Assay: FACS, mTrem2 cells
row,Binder,MFI [MFI]
1,B1,3250
2,B2,6220
3,B3,297
4,B4,10200
5,B5,9770
6,B6,6210
7,B7,4320
8,B8,4260
9,B9,10100
10,B10,577
11,B11,1260
12,B12,1210
13,B13,6380
14,B14,10300
15,B15,1870
16,B16,325
17,B17,843
18,B18,310
19,B19,4760

# Molecular target: T2, human TREM2 Fc fusion protein
# Assay: ForteBio or MSD-SET, avid
row,Binder,Kd [nM]
1,B1,1.49
2,B2,2.22
3,B3,0.96
4,B4,0.436
5,B5,0.35
6,B6,0.66
7,B7,0.435
8,B8,0.445
9,B9,0.431
10,B10,0.197
11,B11,0.465
12,B12,0.562
13,B13,1.09
14,B14,0.792
15,B15,0.575
16,B16,0.729
17,B17,0.635
18,B18,0.697
19,B19,0.605

# Molecular target: T3, mouse TREM2 Fc fusion protein
# Assay: ForteBio or MSD-SET, avid
Binder,Kd [nM],binding result
B1,1.71,
B2,1.17,
B3,,no binding
B4,0.598,
B5,1.41,
B6,2.92,
B7,2.08,
B8,2.46,
B9,1.45,
B10,6.03,
B11,,no binding
B12,,no binding
B13,1.36,
B14,1.67,
B15,,no binding
B16,,no binding
B17,,no binding
B18,,no binding
B19,2.8,

# Molecular target: T4, human monomeric His tagged TREM2 protein
# Assay: ForteBio or MSD-SET, monovalent
row,Binder,Kd [nM]
1,B1,66.7
2,B2,91.7
3,B3,13.1
4,B4,18.3
5,B5,9.08
6,B6,34.5
7,B7,17.4
8,B8,16.8
9,B9,7.37
10,B10,7.97
11,B11,4.01
12,B12,9.46
13,B13,2.47
14,B14,3.46
15,B15,2.73
16,B16,36.4
17,B17,21.6
18,B18,30
19,B19,3.03
